# Measurements as given in the NTF2 design screens of Basanta et al. (2020).
# Assay: protease stability score; higher = more stable; yeast display proteolysis, trypsin and chymotrypsin;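 note: log10 excess protease needed over predicted unfolded state with 0 meaning unfolded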
row,Sequence,protease stability score
1,DQEEVRRVVEKVAKAVQNGDATRLRDMGKDGVKYRRVEEETHGPEAVEKVLKYLRKQGVKLQVKHVEVEGNTAQTEVDYRRGDETLTVHAKAKVQGGRIDEVQVDLDEKAKKYVDHG,0.138
2,DQEHVKRRADTAMKAIQNGDPDEAVKQMDPDAKMRVGDHEITGREDVRRYVETLHRRVDHNHILSLTHHGETVVFNAVVKVNGRNVTVNWVLKFHNGRLKQVDINPDEEKRFQS,0.079
3,DQEHYEKIAKHMSDVLRTGNPDDMLRMIDPNARLEVGDKRWNGRHKIKKFLETFVKSADHVKVRHVEVSGNDITLDVVAHVNGRSVKFNVHANVHNGRIKEVKFDPRAWRDLQT,0.505
4,DQEKFERMAHKANRALEQNDEETFDELADENARMIYGDKRYTGRERVREAVQEIDKRVDHVQVDRVNVHGERAQINAVFHFNGKTQRDNVNMRFSNGKLQEMRFDPDVIRNLEE,-0.131
5,DQEKKATRFARKLIHDIRTNDEEHLVDLADPNVKVQYGDKSYHGREQFKKWWKDLMDQADHVDVKVRDLKVDGNKFVLVYSYVMNHNGQKREVEMNVSAKDKNGRINIQSIQMG,0.301
6,DQEKLETLARQVFDAFREGDEETFRRLADPNVTAVYGDQKYRGRERVAKWLKDLANQIDHLQLNDVTIQGEKMHFDATVRINGKNRKLVMIVEAENGTLKRVVLSHG,0.166
7,DQEKLQSYVKQYETNDESKLKKNMDENARVDIGDRRITGMEKAADILRHFMEQADHVKLDRMEVQGNHATVDVTAVVNGQKLDYKFVIHVHNGKVKRVEWRVTSEENQKTYDKIVG,0.537
8,DQEKNNHDAKKWVKNLRTGNEDELQRLFDEDARFNYGDKTVTGREQLQEWAHRMQRRIDSVDVRSVSQHGDKMNIDVVVRVDGRDRRFIFRAEIHNGRIKNAWMEDT,0.497
9,DQELRDQVERLLHLEKHGDNDEVLRQFDPNAKAQVGDTRYHGMTTAVRDMVRQQNEARFSFEIHHVSVSGDRVVIDAVYVKDHNGKPSTRRVHIQMHFRNGKVQERRQNDDG,0.782
10,DQENLDVLRRLWEALESGNPDKYSQLIDPNAEVVVGDKTYEGKENLKQEIRTERDEMRKEIDWKSMSVHNGQANAEAKIRSNHNGDPREMVVTARARFHNGKLQNYEQHVDK,-0.325
11,DQENLELMNRLLEAISSNDESKFRRLVDPNVRVVIGDEQYHGRETLQKLLRDHNEHSRNDEHIHRVELHNGRVNMDVTREVDHNGRPQTDKFEIVATANNGKAVRMRFERTS,-0.164
12,DQEQAEETQKKWQEVVEKGDEKKAKKIYDPNGQWQDADETHQGYEIVIKMMRRAQKKGIEFQVRRAEVEGDRLQVDYDMRLGDKTVTFTVQMEVQGGHVKVVRVEVTEEAKKLLKEG,1.11
13,DQEREMQEWYEKLVRNYENNDRDRLNELLDPNAQFNVGDQTFHGRENAKKWLKTMVDKVDSVEFDLRRLHVHGNKVVFHANVRYRVNGTDTTVDVVIVARVDNGRLRVEKVEYG,1.28
14,DQERNEQAKKLLDIINTGDEHKVKDMFDPNASIKVGDHTLHGREEIAKHYRREKDESRYQVDRVDFKAHGEKVRVSVKYTFRHNGKPLTATVEYNFRMHNGRIKDLSVRFDEQRQRDRDS,0.117
15,DQEVAETMMERWQKAVQKGDPKEVQEVYDPNVTWKDVDEEHQGKEQVVKQMRKVQKQGIEFQIRRAEVEGDRAQAVYDVKLGNLTVTFTVEMTVRGGRVQEVRVEMDEEAKKLVKKG,0.136
16,DQEVREYIKRVYSTGDPDELNKLIDKDVRMRVGDKEVEGRETVQTIMRDWMTRVDDIKVHSYDVRGNKANYDAQYVFDGRSARFVIHIEFHNGRVKHVVVEATNEEVKQLLRDMLS,1.33
17,DQHAKRLFDEVVSAIKDGDPHQVKKQLDKNVRARVGDKTISGRETFAQQRKTERDEIEWDVEDYKADVNGDHIKVDMKVKSEHNGRPTSDKIDVDVQWHNGHVVRMEFKETR,-0.392
18,DQHDAERMNRVFEQNNEEELHQLMDPNVEVTVGNKRVKGRERAKKLFKRLVTNIDHVSYRSVNDDGDKLELKFVAVINGQTYHLKIEVTLHNGKVKSIHLDARDEKLKHLLDEWLH,1.39
19,DQHEQQKLAENVQKVLRKGDESRFQRLVDPNAKMTYGDKSLTGHERFRKWMQEFRHHADHVEFKEVSIHNGKLNMHAVIDVNGHKQTFVMHFQFHNGTVQHVEQTQT,0.289
20,DQHLEDVARQMQEVEKHNDPEEVSKQFDPNAHARYGDKEVHGHHQFKEQAKRRQTKAQFKVDKYSVSVDNGRVSMSRQYVNDHNGKPRTQTDTAHMEVHDGRITDVKYQSTS,-0.139
